Source: the Immune Epitope Database (IEDB)

target: HLA-A*02:03; test: IEDB peptide-MHC binding, cellular MHC/competitive/fluorescence; ≥ and ≤ were set here for values at or beyond the usual limits of such assays; conditions: source organism: Influenza A virus

Sequence	IC50 [µM]
QAIMDKNIIL	11.4
SAFDERRNRYL	5.17
SMGVYQILA	7.05

same assay, conditions: source organism: Mammarenavirus guanaritoense

Sequence	IC50 [µM]
CNYTRFWYI	5.31

same assay, conditions: source organism: Mammarenavirus machupoense

Sequence	IC50 [µM]
LNVSYLCHL	7.1

same assay, conditions: source organism: Vaccinia virus WR

Sequence	IC50 [µM]
CAVIPFDDI	10
CAVNTPVSM	15.7
DIIDLLLPST	6.59
DIKYDNKLL	49.8
DTMRIYCSL	5.46
FTDCRTIDAI	12.8
GTGILFMEM	7.73
HVLLPFYET	18.6
IQYRQQLELA	8.47
IVDKFGKNHI	5.08
IVPDADPPI	10.7
KLISEKETL	24.7
LIFNVKSKLL	6.69
NAILHNIYRL	10.2
NLYISDYKM	25.3
PLPCQLMYAL	8.71
QAKKPEVRI	6.57
SANMDWRSLT	11.3
VATFRDMLL	9.94
VAVNKSNKPL	5.13
VIVVPVIDRL	59
VVECLTVPNI	19.6
YLSKEDRIIT	5.57
YTGGYDVSL	6.05

target: HLA-A*02:01; test: as above; conditions: source organism: Influenza A virus

Sequence	IC50 [µM]
SAFDERRNRYL	17.8

same assay, conditions: source organism: Mammarenavirus machupoense

Sequence	IC50 [µM]
LNVSYLCHL	6.27

same assay, conditions: source organism: Vaccinia virus WR

Sequence	IC50 [µM]
CAVIPFDDI	17
CAVNTPVSM	49.1
DIKYDNKLL	26.5
GTGILFMEM	6.37
IQYRQQLELA	≥ 70
IVDKFGKNHI	11.2
KLISEKETL	10.2
LIFNVKSKLL	25.5
NLYISDYKM	6.17
PLPCQLMYAL	13
QAKKPEVRI	39.7
SANMDWRSLT	55.7
VATFRDMLL	8.94
VAVNKSNKPL	45
VIVVPVIDRL	14.8
YLSKEDRIIT	11.9

target: HLA-A*02:06; test: as above; conditions: source organism: Influenza A virus

Sequence	IC50 [µM]
QAIMDKNIIL	13.4
SAFDERRNRYL	34.7
SMGVYQILA	10.4

same assay, conditions: source organism: Mammarenavirus machupoense

Sequence	IC50 [µM]
LNVSYLCHL	13.7

same assay, conditions: source organism: Vaccinia virus WR

Sequence	IC50 [µM]
DIKYDNKLL	≥ 70
GTGILFMEM	9.97
IQYRQQLELA	≥ 70
IVDKFGKNHI	8.33
KLISEKETL	7.65
LIFNVKSKLL	28.5
NLYISDYKM	11
PLPCQLMYAL	9.81
QAKKPEVRI	42
SANMDWRSLT	48.1
VATFRDMLL	7.71
VAVNKSNKPL	17.6
VIVVPVIDRL	11.1
YLSKEDRIIT	48.7
YTGGYDVSL	20.3

target: HLA-A*68:02; test: as above; conditions: source organism: Influenza A virus

Sequence	IC50 [µM]
QAIMDKNIIL	8.92
SAFDERRNRYL	5.9
SMGVYQILA	16.8

same assay, conditions: source organism: Mammarenavirus machupoense

Sequence	IC50 [µM]
LNVSYLCHL	20.3

same assay, conditions: source organism: Vaccinia virus WR

Sequence	IC50 [µM]
DIKYDNKLL	24.8
GTGILFMEM	26.5
IQYRQQLELA	12.9
IVDKFGKNHI	12.4
KLISEKETL	≥ 70
LIFNVKSKLL	32.6
NLYISDYKM	14.9
PLPCQLMYAL	31.3
QAKKPEVRI	≥ 70
SANMDWRSLT	15.4
VATFRDMLL	5.92
VAVNKSNKPL	9.35
VIVVPVIDRL	31.4
YLSKEDRIIT	21.5
YTGGYDVSL	6.67

target: HLA-A*02:02; test: as above; conditions: source organism: Mammarenavirus guanaritoense

Sequence	IC50 [µM]
CNYTRFWYI	10.1

same assay, conditions: source organism: Vaccinia virus WR

Sequence	IC50 [µM]
CAVIPFDDI	15.8
CAVNTPVSM	6.27
DIIDLLLPST	14.5
DTMRIYCSL	5.84
FTDCRTIDAI	9.44
HVLLPFYET	16.4
IVPDADPPI	5.08
NAILHNIYRL	5.61
VVECLTVPNI	8.42

target: HLA-A*02:01; test: IEDB peptide-MHC binding, purified MHC/competitive/radioactivity; ≥ and ≤ were set here for values at or beyond the usual limits of such assays; conditions: source organism: Influenza A virus

Sequence	IC50 [µM]
QAIMDKNIIL	1.02
SMGVYQILA	0.978

same assay, conditions: source organism: Mammarenavirus guanaritoense

Sequence	IC50 [µM]
CNYTRFWYI	1.66

same assay, conditions: source organism: Vaccinia virus WR

Sequence	IC50 [µM]
DIIDLLLPST	0.949
DTMRIYCSL	3.4
FTDCRTIDAI	1.84
HVLLPFYET	2.49
IVPDADPPI	0.743
NAILHNIYRL	0.54
VVECLTVPNI	4.28
YTGGYDVSL	3.74

target: HLA-A*02:06; test: as above; conditions: source organism: Mammarenavirus guanaritoense

Sequence	IC50 [µM]
CNYTRFWYI	0.258

same assay, conditions: source organism: Vaccinia virus WR

Sequence	IC50 [µM]
CAVIPFDDI	1.16
CAVNTPVSM	1.52
DIIDLLLPST	0.284
DTMRIYCSL	2.92
FTDCRTIDAI	0.751
HVLLPFYET	1.74
IVPDADPPI	0.274
NAILHNIYRL	0.576
VVECLTVPNI	0.301

target: HLA-A*68:02; test: as above; conditions: source organism: Mammarenavirus guanaritoense

Sequence	IC50 [µM]
CNYTRFWYI	0.344

same assay, conditions: source organism: Vaccinia virus WR

Sequence	IC50 [µM]
CAVIPFDDI	0.023
CAVNTPVSM	0.502
DIIDLLLPST	0.164
DTMRIYCSL	0.0013
FTDCRTIDAI	0.171
HVLLPFYET	0.924
IVPDADPPI	1.52
NAILHNIYRL	0.724
VVECLTVPNI	3.75

target: HLA-A*02:02; test: as above; conditions: source organism: Influenza A virus

Sequence	IC50 [µM]
QAIMDKNIIL	0.937
SAFDERRNRYL	1.28
SMGVYQILA	0.518

same assay, conditions: source organism: Mammarenavirus machupoense

Sequence	IC50 [µM]
LNVSYLCHL	0.297

same assay, conditions: source organism: Vaccinia virus WR

Sequence	IC50 [µM]
DIKYDNKLL	1.42
GTGILFMEM	2.2
IQYRQQLELA	4.32
IVDKFGKNHI	2.93
KLISEKETL	0.841
LIFNVKSKLL	2.39
NLYISDYKM	2.79
PLPCQLMYAL	0.163
QAKKPEVRI	0.738
SANMDWRSLT	1.79
VATFRDMLL	2.53
VAVNKSNKPL	2.75
VIVVPVIDRL	4.57
YLSKEDRIIT	1.3
YTGGYDVSL	1.99
